Legend:
[1] = tested on: TALE5 synthetic transcription factor (TAL DNA-binding domain targeting ZmBBM promoter + activation domain) (synthetic (Xanthomonas TAL effector)?); assay: cell_activity; conditions: endogenous BBM mRNA by qRT-PCR in maize protoplasts, 24 h; text p298 cites SEQ ID NO: 218 but FIG. 3 legend assigns TALE4-6 to SEQ 270-272
[2] = tested on: TALE1 synthetic transcription factor (TAL DNA-binding domain targeting ZmWUS promoter + activation domain) (synthetic (Xanthomonas TAL effector)?); assay: cell_activity; conditions: endogenous WUS mRNA by qRT-PCR in maize protoplasts, 24 h

Row | Sequence | activity (fold induction) [1] | activity (fold induction) [2]
1 | TCCTCGAATCATTCTAAGAAGAAAC (double strand) [TALE5 target site in ZmBBM promoter] | 490 | 
2 | TCCCGCTCTCGCTCTCTGC (double strand) [TALE1 target site in ZmWUS promoter] |  | 60
